# What was measured:
# Test in all cases: negative-stain EM
# [1] = biological target: H2/1 GCN4 (SG57 head, PR8 stalk, GCN4-trimerized) (influenza A virus A/Puerto Rico/8/34/Mount Sinai(H1N1) | influenza A virus A/Singapore/1/1957(H2N2))
# [2] = biological target: H5/1 GCN4 (IN05 head, PR8 stalk, GCN4-trimerized) (influenza A virus A/Puerto Rico/8/34/Mount Sinai(H1N1) | influenza A virus A/Indonesia/5/2005(H5N1))
# [3] = biological target: H5 GCN4 (IN05 HA, GCN4-trimerized) (influenza A virus A/Indonesia/5/2005(H5N1))
substance,measurement,setting,value
"H2/1 GCN4 (SG57 head, PR8 stalk, GCN4-trimerized) (domain or fragment)",stoichiometry N,[1],3
"H5/1 GCN4 (IN05 head, PR8 stalk, GCN4-trimerized) (domain or fragment)",stoichiometry N,[2],3
"H5 GCN4 (IN05 HA, GCN4-trimerized) (domain or fragment)",stoichiometry N,[3],3

# Source: paper PMC10998906
